Results on 6 sequences are retold here after the supplement of paper PMC11246515.

± gives the standard deviation of the averaged measurements.

This data set is described as follows: total protein half-life in vivo (active degradation + dilution); higher = more stable protein.
Where [1] appears, read: E. coli NCM3722 delta-clpP delta-lon delta-hslV, growth: N-lim chemostat, doubling time 6 h.
Setting [2] is: E. coli NCM3722 delta-clpP, growth: N-lim chemostat, doubling time 6 h.
Setting [3] is: E. coli NCM3722 delta-hslV, growth: N-lim chemostat, doubling time 6 h.
Setting [4] is: E. coli NCM3722 delta-lon, growth: N-lim chemostat, doubling time 6 h.
Where [5] appears, read: E. coli NCM3722 delta-smpB, growth: N-lim chemostat, doubling time 6 h.
The mark [6] stands for this setting: wild type E. coli NCM3722, growth: C-lim chemostat, doubling time 3 h.
[7] abbreviates: wild type E. coli NCM3722, growth: C-lim chemostat, doubling time 6 h.
[8] abbreviates: wild type E. coli NCM3722, growth: C-lim chemostat, doubling time 12 h.
The mark [9] stands for this setting: wild type E. coli NCM3722, growth: N-lim chemostat, doubling time 6 h.
[10] abbreviates: wild type E. coli NCM3722, growth: N-lim chemostat, doubling time 12 h.
Setting [11] is: wild type E. coli NCM3722, growth: P-lim chemostat, doubling time 6 h.
[12] abbreviates: wild type E. coli NCM3722, growth: P-lim chemostat, doubling time 12 h.

As for “MKGGKRVQTARPNRINGEIRAQEVRLTGLEGEQLGIVSLREALEKAEEAGVDLVEISPNAEPPVCRIMDYGKFLYEKSKSSKEQKKKQKVIQVKEIKFRPGTDEGDYQVKLRSLIRFLEEGDKAKITLRFRGREMAHQQIGMEVLNRVKDDLQELAVVESFPTKIEGRQMIMVLAPKKKQ [P0A707]”, the “total protein half-life in vivo” value runs as follows: under setting [1], 5.98 ± 0.11 h; under setting [2], 5.66 ± 0.61 h; under setting [3], 5.02 ± 0.54 h; under setting [4], 6.492 ± 0.032 h; under setting [5], 5.12 ± 0.1 h; under setting [6], 3.35 ± 0.084 h. In addition, the “total protein half-life in vivo” value reads like this: under setting [7], 5.555 ± 0.039 h; under setting [8], 10.5 ± 0.76 h; under setting [9], 4.69 ± 0.57 h; under setting [10], 10.9 ± 1.7 h; under setting [11], 4.89 ± 0.27 h; under setting [12], 10.4 ± 0.88 h.
In the case of “MGSINLRIDDELKARSYAALEKMGVTPSEALRLMLEYIADNERLPFKQTLLSDEDAELVEIVKERLRNPKPVRVTLDEL [P0C079]”, the “total protein half-life in vivo” value reads like this: under setting [1], 3.41 ± 0.82 h; under setting [2], 1.33 h; under setting [7], 1.45 h; under setting [12], 2.75 h.
“MIEVKHLKTLQALRNCGSLAAAAATLHQTQSALSHQFSDLEQRLGFRLFVRKSQPLRFTPQGEILLQLANQVLPQISQALQACNEPQQTRLRIAIECHSCIQWLTPALENFHKNWPQVEMDFKSGVTFDPQPALQQGELDLVMTSDILPRSGLHYSPMFDYEVRLVLAPDHPLAAKTRITPEDLASETLLIYPVQRSRLDVWRHFLQPAGVSPSLKSVDNTLLLIQMVAARMGIAALPHWVVESFERQGLVVTKTLGEGLWSRLYAAVRDGEQRQPVTEAFIRSARNHACDHLPFVKSAERPTYDAPTVRPGSPARL [P0A9F9]”: the “total protein half-life in vivo” value worked out at 5.1817 ± 0.0019 h under setting [1]; 1.5 ± 0.033 h under setting [2]; 0.933 ± 0.25 h under setting [3]; 2.88 ± 0.57 h under setting [4]; 1.1 ± 0.09 h under setting [5]; 0.811 ± 0.024 h under setting [6]. Also, the “total protein half-life in vivo” value runs as follows: under setting [7], 1.17 ± 0.17 h; under setting [8], 1.08 ± 0.34 h; under setting [9], 1.14 ± 0.14 h; under setting [10], 1.81 ± 0.27 h; under setting [11], 0.609 h; under setting [12], 1.87 h.
“MINDIKWVQAQRKATDWRQAVEIATRPLVAYGAAQPCYVNGIIENTLNWGPYYLIAPGIALPHARPEQGANYNQVSITTLRTPVAFGNEECDPVWLLLCVSATDANAHILTIQRISQFIDSPQRLTAVGNASTDDALFALVSG”: the “total protein half-life in vivo” value turned out to be 4.94 h under setting [1]; 4.17 ± 0.58 h under setting [2]; 4.11 h under setting [3]; 4.24 ± 0.33 h under setting [4]; 4.08 ± 0.47 h under setting [5]; 4.65 ± 0.36 h under setting [7]. Further, the “total protein half-life in vivo” value runs as follows: under setting [8], 6.74 ± 0.098 h; under setting [9], 4.66 h; under setting [10], 8.43 ± 2.6 h; under setting [11], 6.04 h.
With “MGNNVVVLGTQWGDEGKGKIVDLLTERAKYVVRYQGGHNAGHTLVINGEKTVLHLIPSGILRENVTSIIGNGVVLSPAALMKEMKELEDRGIPVRERLLLSEACPLILDYHVALDNAREKARGAKAIGTTGRGIGPAYEDKVARRGLRVGDLFDKETFAEKLKEVMEYHNFQLVNYYKAEAVDYQKVLDDTMAVADILTSMVVDVSDLLDQARQRGDFVMFEGAQGTLLDIDHGTYPYVTSSNTTAGGVATGSGLGPRYVDYVLGILKAYSTRVGAGPFPTELFDETGEFLCKQGNEFGATTGRRRRTGWLDTVAVRRAVQLNSLSGFCLTKLDVLDGLKEVKLCVAYRMPDGREVTTTPLAADDWKGVEPIYETMPGWSESTFGVKDRSGLPQAALNYIKRIEELTGVPIDIISTGPDRTETMILRDPFDA [P0A7D4]”, the “total protein half-life in vivo” value stood at 4.49 ± 0.41 h under setting [1]; 4.35 ± 0.28 h under setting [2]; 4.567 ± 0.026 h under setting [3]; 4.73 ± 0.3 h under setting [4]; 4.3 ± 0.15 h under setting [5]; 3.04 ± 0.093 h under setting [6]. Besides, the “total protein half-life in vivo” value is 5.86 ± 0.3 h under setting [7]; 10.4 ± 1.6 h under setting [8]; 4.39 ± 0.098 h under setting [9]; 7.26 ± 0.18 h under setting [10]; 6.09 ± 0.23 h under setting [11]; 10.6 ± 0.72 h under setting [12].
Regarding “MERLKRMSVFAKVVEFGSFTAAARQLQMSVSSISQTVSKLEDELQVKLLNRSTRSIGLTEAGRIYYQGCRRMLHEVQDVHEQLYAFNNTPIGTLRIGCSSTMAQNVLAGLTAKMLKEYPGLSVNLVTGIPAPDLIADGLDVVIRVGALQDSSLFSRRLGAMPMVVCAAKSYLTQYGIPEKPADLSSHSWLEYSVRPDNEFELIAPEGISTRLIPQGRFVTNDPMTLVRWLTAGAGIAYVPLMWVINEINRGELEILLPRYQSDPRPVYALYTEKDKLPLKVQVVINSLTDYFVEVGKLFQEMHGRGKEK”, the “total protein half-life in vivo” value by setting is: under setting [1], 5.96 ± 0.4 h; under setting [2], 5.9 ± 0.28 h; under setting [3], 6.51 ± 0.75 h; under setting [4], 6.27 ± 0.31 h; under setting [5], 6.03 ± 0.19 h; under setting [6], 3.47 ± 0.21 h. The “total protein half-life in vivo” value runs as follows: under setting [8], 11 ± 0.14 h; under setting [9], 5.69 ± 0.44 h; under setting [10], 13.9 ± 0.74 h; under setting [11], 5.75 ± 0.69 h; under setting [12], 12.7 ± 0.32 h.
